Measurements reported in PMC4148453.
Several values for one entry are separate records, joined by “and”; a condition that tells them apart may be missing. Equal entries are not always repeated.

How the values were obtained:
Assay in all cases: EMSA
Conditions in all cases: 10 mM Tris-Cl pH 8.0, 1 mM DTT, 10% glycerol, 5 mM MgCl2, 10 mM KCl, with 50 mM acetyl phosphate when indicated; EMSA 30 min at 37 C; footprint at room …
[1] = tested on: 6His-BfmR (Pseudomonas aeruginosa MPAO1)
[2] = tested on: 6His-BfmR D55A (Pseudomonas aeruginosa MPAO1)
[3] = tested on: 6His-BfmR (Pseudomonas aeruginosa MPAO1); remark: listed apart in the source

bfmR promoter was tested, and the Kd [1] was 200 nM and > 600 nM, the Kd [2] was greater than 600 nM and the Kd [3] was less than 400 nM.
